{
  "source": "paper PMC10306066",
  "target": "Ralstonia solanacearum lectin (Ralstonia solanacearum)",
  "assay": "crystal structure",
  "data": [
    {"substance": "Ralstonia solanacearum lectin (natural protein)", "values": [
      {"measurement": "stoichiometry N", "result": 3}
    ]}
  ]
}
